Data reported in patent US20080207488.

T1: freshly dissolved FP13 K157G
T1 chain: KRLEVDIDIGIRS

T2: human fibrin α-chain (148-160) amyloid fragment with Lys157Gly mutation (FP13), aggregated
T2 chain: KRLEVDIDIGIRS

T3: non-amyloid fragment FP10 of human fibrin α-chain (148-157)
T3 chain: KRLEVDIDIK

T4: recombinant human β2-glycoprotein I, P02749
T4 chain: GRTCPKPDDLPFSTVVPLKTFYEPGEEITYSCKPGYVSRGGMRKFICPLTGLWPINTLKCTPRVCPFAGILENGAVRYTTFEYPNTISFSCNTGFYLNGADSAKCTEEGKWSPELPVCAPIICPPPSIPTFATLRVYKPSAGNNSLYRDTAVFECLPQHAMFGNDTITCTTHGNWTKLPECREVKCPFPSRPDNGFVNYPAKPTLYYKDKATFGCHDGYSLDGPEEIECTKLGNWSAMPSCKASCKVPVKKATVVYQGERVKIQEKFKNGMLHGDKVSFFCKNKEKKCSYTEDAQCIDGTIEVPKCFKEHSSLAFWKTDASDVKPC

T5: β2-glycoprotein I purified from fresh human plasma, P02749
T5 chain: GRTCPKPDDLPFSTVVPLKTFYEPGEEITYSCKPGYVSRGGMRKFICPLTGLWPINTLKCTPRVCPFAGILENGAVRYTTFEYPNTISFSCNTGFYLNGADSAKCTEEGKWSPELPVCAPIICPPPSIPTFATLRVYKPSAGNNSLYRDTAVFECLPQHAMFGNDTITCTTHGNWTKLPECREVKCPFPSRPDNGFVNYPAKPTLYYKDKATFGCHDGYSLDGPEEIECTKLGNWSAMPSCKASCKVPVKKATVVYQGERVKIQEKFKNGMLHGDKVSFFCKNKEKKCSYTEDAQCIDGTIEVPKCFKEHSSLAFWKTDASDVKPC

B1: factor XII purified from human plasma (protein)
chain: IPPWEAPKEHKYKAEEHTVVLTVTGEPCHFPFQYHRQLYHKCTHKGRPGPQPWCATTPNFDQDQRWGYCLEPKKVKDHCSKHSPCQKGGTCVNMPSGPHCLCPQHLTGNHCQKEKCFEPQLLRFFHKNEIWYRTEQAAVARCQCKGPDAHCQRLASQACRTNPCLHGGRCLEVEGHRLCHCPVGYTGAFCDVDTKASCYDGRGLSYRGLARTTLSGAPCQPWASEATYRNVTAEQARNWGLGGHAFCRNPDNDIRPWCFVLNRDRLSWEYCDLAQCQTPTQAAPPTPVSPRLHVPLMPAQPAPPKPQPTTRTPPQSQTPGALPAKREQPPSLTRNGPLSCGQRLRKSLSSMTRVVGGLVALRGAHPYIAALYWGHSFCAGSLIAPCWVLTAAHCLQDRPAPEDLTVVLGQERRNHSCEPCQTLAVRSYRLHEAFSPVSYQHDLALLRLQEDADGSCALLSPYVQPVCLPSGAARPSETTLCQVAGWGHQFEGAEEYASFLQEAQVPFLSLERCSAPDVHGSSILPGMLCAGFLEGGTDACQGDSGGPLVCEDQAAERRLTLQGIISWGSGCGDRNKPGVYTDVAYYLAWIREHTVS
B2: tissue-type plasminogen activator (tPA) (protein)
chain: SYQVICRDEKTQMIYQQHQSWLRPVLRSNRVEYCWCNSGRAQCHSVPVKSCSEPRCFNGGTCQQALYFSDFVCQCPEGFAGKCCEIDTRATCYEDQGISYRGTWSTAESGAECTNWNSSALAQKPYSGRRPDAIRLGLGNHNYCRNPDRDSKPWCYVFKAGKYSSEFCSTPACSEGNSDCYFGNGSAYRGTHSLTESGASCLPWNSMILIGKVYTAQNPSAQALGLGKHNYCRNPDGDAKPWCHVLKNRRLTWEYCDVPSCSTCGLRQYSQPQFRIKGGLFADIASHPWQAAIFAKHRRSPGERFLCGGILISSCWILSAAHCFQERFPPHHLTVILGRTYRVVPGEEEQKFEVEKYIVHKEFDDDTYDNDIALLQLKSDSSRCAQESSVVRTVCLPPADLQLPDWTECELSGYGKHEALSPFYSERLKEAHVRLYPSSRCTSQHLLNRTVTDNMLCAGDTRSGGPQANLHDACQGDSGGPLVCLNDGRMTLVGIISWGLGCGQKDVPGVYTKVTNYLDWIRDNMRP

Legend:
[1] = biological target: T1, freshly dissolved FP13 K157G
[2] = biological target: glycated human haemoglobin (Hb-AGE), P69905
[3] = biological target: human amyloid-β (Aβ) (1-40) Dutch type
[4] = biological target: T2, human fibrin α-chain (148-160) amyloid …
[5] = biological target: native haemoglobin (Hb), P69905
[6] = biological target: T3, non-amyloid fragment FP10 of human …
[7] = biological target: T4, recombinant human β2-glycoprotein I, …
[8] = biological target: T5, β2-glycoprotein I purified from fresh …

Chain of native haemoglobin (Hb), P69905 (P69905 2-142, chain 1 of 2): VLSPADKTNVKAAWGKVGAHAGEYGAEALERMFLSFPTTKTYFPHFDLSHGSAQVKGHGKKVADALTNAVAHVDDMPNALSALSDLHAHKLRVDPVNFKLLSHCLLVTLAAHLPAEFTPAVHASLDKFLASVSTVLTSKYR
Chain of native haemoglobin (Hb), P69905 (chain, as listed by the source, chain 2 of 2): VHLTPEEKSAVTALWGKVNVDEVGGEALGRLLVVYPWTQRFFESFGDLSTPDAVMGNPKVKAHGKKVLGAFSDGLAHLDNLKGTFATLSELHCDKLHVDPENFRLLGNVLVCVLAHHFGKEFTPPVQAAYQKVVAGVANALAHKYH
Chain of glycated human haemoglobin (Hb-AGE), P69905 (P69905 2-142, chain 1 of 2): as the sequence (P69905 2-142, chain 1 of 2) above
Chain of glycated human haemoglobin (Hb-AGE), P69905 (chain, as listed by the source, chain 2 of 2): as the sequence (chain, as listed by the source, chain 2 of 2) above

Protein | activation of factor XII (conversion of Chromozym PK by kallikrein) (LAM12) | activation of factor XII (conversion of Chromozym PK by kallikrein) (TTR11) | factor XII auto-activation (substrate S-2222) [1] | factor XII auto-activation (substrate S-2222) [2] | activation of factor XII (conversion of Chromozym PK by kallikrein) [3] | factor XII auto-activation (substrate S-2222) [3] | activation of factor XII (conversion of Chromozym PK by kallikrein) [4] | factor XII auto-activation (substrate S-2222) [4] | activation of factor XII (conversion of Chromozym PK by kallikrein) (mIAPP) | factor XII auto-activation (substrate S-2222) [5] | activation of factor XII (conversion of Chromozym PK by kallikrein) [6] | tPA-mediated conversion of Plg to Pls (substrate S-2251) [7] | tPA-mediated conversion of Plg to Pls (substrate S-2251) [8]
B1 | LAM12 and TTR11 stimulate factor XII activation, to a similar extent as kaolin | LAM12 and TTR11 stimulate factor XII activation, to a similar extent as kaolin | did not or hardly auto-activate factor XII (not shown) | All three amyloid-like aggregates are able to induce factor XII auto-activation | amyloid-like peptide aggregates of FP13 and Aβ stimulate the activation of factor XII | All three amyloid-like aggregates are able to induce factor XII auto-activation; the potency of the Aβ(1-40) E22Q was somewhat lower | amyloid-like peptide aggregates of FP13 and Aβ stimulate the activation of factor XII | All three amyloid-like aggregates are able to induce factor XII auto-activation | non-amyloid controls FP10 and mIAPP do not activate factor XII | did not or hardly auto-activate factor XII (not shown) | non-amyloid controls FP10 and mIAPP do not activate factor XII | – | –
B2 | – | – | – | – | – | – | – | – | – | – | – | Recombinant β2GPI, but not β2GPI purified from fresh plasma stimulate tPA-mediated conversion of Plg to Pls | but not β2GPI purified from fresh plasma
